Laboratory results reported in patent US20240352438A1, “MEANS AND METHODS FOR DETOXIFYING OCHRATOXIN A” (DSM Austria GmbH, priority 2021, published 2024).

assay: Thermostability assay: residual OTA detoxification activity after 10 min incubation at 45-99° C. (T50); format: physicochemical; details: 0.1 mg/mL protein in 20 mM Tris-HCl pH 7.5, residual OTA detoxification activity relative to 4° C. reference aliquot
Procedure: Stability was determined in terms of thermostability. Notwithstanding, a person having skill in the art is aware that stability towards high temperature (e.g. more than 30° C.) often correlates with stability towards other non-standard conditions such as stability towards acidic or basic pH (e.g. below pH 6.5 or above pH 7.5, respectively), towards elevated salt concentrations, organic solvents or drying.
To determine the kinetic stability of the produced enzymes, thermostability assays were performed. To this end, purified protein samples were diluted to a protein concentration of 0.1 mg/mL in 20 mM Tris-HCl buffer pH 7.5 and aliquots were incubated in a thermocycler for 10 min at either 45, 55, 65, 75, 80, 85, 90, 95 or 99° C. After this incubation, the aliquots were stored at 4° C. until further analysis. A reference aliquot was stored at 4° C. throughout the incubation. Subsequently, all aliquots were assayed for residual OTA detoxification activity using the assay described in Example 3. Residual enzyme activities were calculated relative to the reference aliquot. The temperature range in which 50% of the initial activity was lost after the incubation (T50), in relation to the reference aliquot was determined.

Molecule	T50 (temperature at which 50% of the initial activity was maintained)
29 (protein, exemplary polypeptide) MDLGIKNGNVFNGKGVVGKVNIYVKDGKIVEISKENKQAKIEIDAKDMFVMPGLIDAHIHLTGIKGGSLLKTMFEKPEYRVLRASKWLEKLLLAGFTTVRDCGETISLALKRGVSEGIINGPRIIAAGKPISQTFGHGELSHDVPLEFSMALSFSEFCDGVESCIRASRKVLRDGADFIKIFATGGVLSQRDRPEHPQLSYEEISAIVNEAEKINTYVAAHAHGDKGARIAVEAGIKTLEHGTLLRDETLKLMRERNVTLTPTLTIQELIYKYGKQIGVDEWGLQKINEVRESVVNVVKKAEEYGVMIITGTDLGFETGLEEIDIGKNWMESVLLVERGGLSTISSLRASTYNSAFAIGINAGAIEVGKDADIIVIDGDPTENIRDLSKVRRVVKNGKLTVEDGKFL	>95 °C
27 (protein, exemplary polypeptide) MDILIKGGQVFNGKDFIGKANVYIKYGKIVEVSKEVKEAKEEIDARDMFVMPGLIDAHIHLSGIKGGSLMKTMFERPEYRVLRASKWLEKLLLAGFTTVRDCGEYVSLALKRAVQEGTIKGSNIIAAGRPVTQTFGHGEISHDIPLEFSHKVGFSEFCDGTESCIHAARKILRDGSDFIKVFATGGVLSQRDKPENPQLSYDEIKAIVNEAHKVGTYVAAHAHGDAGAKIAVEAGVKTIEHGTLLKDDTLKLMVNKGVSLTPTLTIQEVIYRYGKQIGVDEWGLQKIFEVRERVADVVKKAKDYGVLMISGTDLGFETGLWDIDMGKNWYELVLLVERGGLTPKEALTTATYNSSIALGINSGFIDIGKEGDLVVIDGNPLENIYDIAKVTHVLKAGRVEVRNGKLESK	>95 °C
30 (protein, exemplary polypeptide) MELAIRNGIVFNGKEVIGKTNIYVREGKIVEVSREDHSAKMEIDAKDMFVMPGLIDAHIHLSGIKGGSLLKIMFEKPEYRVLRAAKWLEKLLLAGFTTVRDCGETVSLALKRAVNDGIIDGPKVIAAGKPITQTFGHGELSHDVPLEFSKTMSFSEFCDGMESCIHAARKVLRDGADFIKIFATGGVLSQRDTPEHPQLSYEEIRAIVNEAEKVNSYVAAHAHGDRGARIAIEAGVKTLEHGTLLKDETLKLMKEKNVTLTPTLTIQELIFKYGKQIGVDEWGLQKITSVRESIANVVRKAKEYGVTIISGTDLGFETGLEEIEMGKNWMETVLLVERGGLSPIEALRASTYNAAMAIGINAGVIEIGKDADIIIINGDPTQNVREISKITHVIKNGKLTVENKSIKG	>95 °C
34 (protein, exemplary polypeptide) MELAIRNGIVFNGKEIIGKTNIYVREGKIVEVSREDHSAKMEIDAKDMFVMPGLIDAHIHLSGIKGGSLLKIMFEKPEYRVLRAAKWLEKLLLAGFTTVRDCGETVSLALKRALNDGIIGGPKVIAAGKPITQTFGHGELSHDVPLEFSKTMSFSEFCDGMESCIHAARKVLRDGADFIKIFATGGVLSQRDRPEHPQLSYEEIRAIVNEAEKVNTYVAAHAHGDRGARIAIEAGVKTLEHGTLLKDETLKLMKEKNVTLTPTLTIQELIFKYGKQIGVDEWGLQKITSVRENIANVVRKAKEYGVTIISGTDLGFETGLEEIDMGKNWMETVLLVERGGLSPIEALRASTYNAAMAIGINAGVIEIGKDADIIIINGDPTLNVREISKITHVIKNGKLTVENKSIKG	>95 °C
31 (protein, exemplary polypeptide) MELAIRNGIVFNGKEVIGKTNIYVREGKIVEVSREDHSAKMEIDAKDMFVMPGLIDAHIHLSGIKGGSLLKIMFEKPEYRVLRAAKWLEKLLLAGFTTVRDCGETVSLALKRAVNDGIVDGPKVIAAGKPITQTFGHGELSHDVPLEFSKTMSFSEFCDGMESCIHAARKVLRDGADFIKIFATGGVLSQRDTPEHPQLSYEEIRAIVNEAEKVNSYVAAHAHGDRGARIAIEAGVKTLEHGTLLKDETLKLMKEKNVTLTPTLTIQELIFKYGKQIGVDEWGLQKITSVRESIANVVRKAKEYGVTIISGTDLGFETGLEEIEMGKNWMETVLLVERGGLSPIEALRASTYNAAMAIGINAGVIEIGKDADIIIINGDPTQNVREISKITHVIKNGKLTVENKSIKG	>95 °C
32 (protein, exemplary polypeptide) MELAIRNGIVFNGKEVIGKTNIYVREEKIVEISREDHSAKMEIDAKDMFVMPGLIDAHIHLSGIKGGSLLKIMFEKPEYRVLRAAKWLEKLLLAGFTTVRDCGETVSLALKRALNDGIIDGPKVIAAGKPITQTFGHGELSHDVPLEFSKTMSFSEFCDGMESCIHAARKVLRDGADFIKIFATGGVLSQRDRPEHPQLSYEEIRAIVNEAEKVNTYVAAHAHGDRGARIAIEAGVKTLEHGTLLKDETLKLMKEKNVTLTPTLTIQELIFKYGKQIGVDEWGLQKITSVRENIANVVRKAKEYGVTIISGTDLGFETGLEEIDMGKNWMETVLLVERGGLSPIEALRASTYNAAMAIGINAGVIEIGKDADIIIINGDPTLNVREISKITHVIKNGKLTVENKSIKG	>95 °C
33 (protein, exemplary polypeptide) MELAIRNGIVFNGKEIIGKTNIYVREGKIVEVSREDHSAKMEIDAKDMFVMPGLIDAHIHLSGIKGGSLLKIMFEKPEYRVLSAAKWLEKLLLAGFTTVRDCGETVSLALKRALNDGIIGGPKVIAAGKPITQTFGHGELSHDVPLEFSKTMSFSEFCDGMESCIHAARKVLRDGADFIKIFATGGVLSQRDRPEHPQLSYEEIRAIVNEAEKVNTYVAAHAHGDRGARIAIEAGVKTLEHGTLLKDETLKLMKEKNVTLTPTLTIQELIFKYGKQIGVDEWGLQKITSVRENIANVVRKAKEYGVTIISGTDLGFETGLEEIDMGKNWMETVLLVERGGLSPIEALRASTYNAAMAIGINAGVIEIGKDADIIIINGDPTLNVREISKITHVVKNGKLTVENKSIKG	>95 °C
26 (protein, exemplary polypeptide) MAFDIALKNGNIFNGKEFIGKSNIYINNGKIVKVSKEELDAKQEIDAMDMFVMPGLIDAHMHISGIKGGSLLKLMFERPEYRTIRATKWLEKLLLAGFTTVRDCGDPISISLAKAVKEGIIKGPNVIAAGRPITQTFGHGELSHDIPLEVSETTGFSEICDGTESCIHAARKVLREGSDFIKIFATGGVLSQRDKPENPQLTYDEIKVIVNEAEKVGTYVAAHAHGDKGARIAIEAGIKTLEHGTLLQDETLKLMIEKKVTLTPTLSIQEVIYRHGKEIGVDEWGLEKIAMVRDSISSVVKKAKDYGITIITGTDLGFETGLEDIDIGKNWMEIVLLIEIGGLTPVEALRAATYNSSIAININSGLIDSGKEADLIIINGNPLEDIKDISKVSYVIKDGKIEVEERKIKN	>95 °C
74 (protein, exemplary polypeptide) MTTRTRILTAFLSLLAANACAADAAPAAPHTVVLRAARMFDGASGKLVDHPQLTIVGNKIVRIAQGDKAEVPAGAEVVDLGDATLLPGFIDAHVHLSGQSSDNWYGDFFDNMMRFPAEQALYGAYYARITLEAGFTSVRDVGSTDWVALGLRNAIDAGKVPGPRMLVSNYLVGSTGGHADQDPIPPHKLPLAGPLQGVCNGPEECRAAVRYQIKYGANVIKFMPSGGVLSLSDPVDAPELSQDEMNAVIGESHAWGRKVAAHAHGDKAAKMAVAAGVDSIEHGSFIEDDTLRAMKAKNVYLVPTISAIAHVEEKIGTFPPVIAEKGRAAAAHLRQTFRHAVQIGVPIALGTDAGVGAHGSNAREFRYMVENGLTPAQALLAGTANAARLLGTFDRVGTLEAGKLADVVAVPGNPIADITVTERPLFVMKDGVVVRRDAVR	<63.2 °C
75 (protein, exemplary polypeptide) MTTRTRILTAFLSLLAANACAADAAPAAPHTVVLRAARMFDGASGKLVDHPQLTIVGNKIVRIAQGDKAEVPAGAEVVDLGDATLLPGFIDAHVHLSGQSSDNWYGDFFDNMMRFPAEQALYGAYYARITLEAGFTSVRDVGSTDWVALGLRNAIDAGKVPGPRMLVSNYAVGSTGGQADQDPIPPHKLPLAGPLQGVCNGPEECRAAVRYQIKYGANVIKFMPSGGVLSLSDPVDAPELSQDEMNAVIGESHAWGRKVAAHAHGDKAAKMAVAAGVDSIEHGSFIEDDTLRAMKAKNVYLVPTISAIAHVEEKIGTFPPVIAEKGRAAAAHLRQTFRHAVQIGVPIALGTDAGVGAHGSNAREFRYMVENGLTPAQALLAGTANAARLLGTFDRVGTLEAGKLADVVAVPGNPIADITVTERPLFVMKDGVVVRRDAVR	74.4-77.0 °C
28 (protein, exemplary polypeptide) MDISIKGGELFTGKELLGKFNIYIKDKKIVEISKEDKQAEVEVNAKDMFVMPGLIDAHIHLSGVKGGSLLKTMFEKPEYRVLRASKWLERLLLAGFTTVRDCGESISIALKRAVNEKIIKGPKIIAAGRPISQTFGHGELSHDLPLEFSKALSFSEFCDGVESCIHASRKVLREGADFIKIFATGGVLSQRDKPENPQLSYEEIKAIVNEAEKVNTYVAAHAHGDKGARIAIEAGVKTLEHGTLLRDDTLKLMVEKRVSLTPTLTIQELIYKYGKQIGVDEWGLEKINSVRESVAEVVRKAKEYGVLIINGTDLGFETGLDEIDMGKNWMETVLLVERGNLSNVEALRASTYNSAIAIGNDAGIIDIGRPADIIVINGNPSENIRDISKVVHVIKDGSLVVENKRLTDSL	>95 °C
